{"source": "paper PMC9640265", "about": "(The Journal of General Physiology, 2022)", "proteins": {"B1": {"name": "NaKΔ18 (domain or fragment, Bacillus cereus, UniProt Q81HW2 19-114, looked up)", "chain": "WKDKEFQVLFVLTILTLISGTIFYSTVEGLRPIDALYFSVVTLTTVGDGNFSPQTDFGKIFTILYIFIGIGLVFGFIHKLAVNVQLPSILSNRKKE"}, "B2": {"name": "L61T NaKΔ18 (domain or fragment, Bacillus cereus, UniProt Q81HW2 19-114, looked up)", "chain": "B1 chain with L43T"}, "B3": {"name": "L35A/L61A NaKΔ18 (domain or fragment, Bacillus cereus, UniProt Q81HW2 19-114, looked up)", "chain": "B1 chain with L17A, L43A"}, "B4": {"name": "L61A NaKΔ18 (domain or fragment, Bacillus cereus, UniProt Q81HW2 19-114, looked up)", "chain": "B1 chain with L43A"}, "B5": {"name": "L35A NaKΔ18 (domain or fragment, Bacillus cereus, UniProt Q81HW2 19-114, looked up)", "chain": "B1 chain with L17A"}}, "note": "Substitutions are numbered along the chain they refer to. Names may count otherwise."}
{"molecular_target": "the molecule itself", "assay": "SEC"}
{"protein": "B1", "stoichiometry N": 4}
{"protein": "B2", "stoichiometry N": 4}
{"protein": "B3", "stoichiometry N": 4}
{"protein": "B4", "stoichiometry N": 4}
{"protein": "B5", "stoichiometry N": 4}
